Assay results as given in paper PMC10243133 (Proceedings of the National Academy of Sciences of the …, 2023).

Experiments:
mutant GLP-1R = details: cited from earlier work
[1] = molecular target: GLP-1R endogenously expressed in the rat pancreatic INS-1E β-cell line (rat (endogenous in INS-1E)) (UniProt P32301)
Chain of GLP-1R endogenously expressed in the rat pancreatic INS-1E β-cell line (rat (endogenous in INS-1E)) (P32301 22-463): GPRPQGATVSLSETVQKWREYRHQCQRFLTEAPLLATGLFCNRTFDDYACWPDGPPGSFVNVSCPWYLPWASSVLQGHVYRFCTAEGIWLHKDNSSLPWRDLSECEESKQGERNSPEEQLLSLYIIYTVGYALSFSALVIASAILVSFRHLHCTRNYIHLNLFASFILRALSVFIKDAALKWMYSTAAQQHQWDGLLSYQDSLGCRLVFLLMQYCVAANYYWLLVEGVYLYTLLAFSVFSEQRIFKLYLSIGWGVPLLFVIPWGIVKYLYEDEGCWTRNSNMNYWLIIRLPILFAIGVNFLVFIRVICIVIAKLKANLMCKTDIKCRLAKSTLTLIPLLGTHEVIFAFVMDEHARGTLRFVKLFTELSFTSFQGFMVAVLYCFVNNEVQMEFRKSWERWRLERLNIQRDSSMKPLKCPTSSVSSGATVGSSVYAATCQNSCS

| EC50 of peptide activity in rat INS-1E cells with 3 μM compound 3-20 (Emax 63%) [1] [nM] | EC50 of peptide activity in rat INS-1E cells with 3 μM compound 3-24 (Emax 60%) [1] [nM] | Molecule | allosteric activity in GLP-1R binding site mutants (mutant GLP-1R) |
| --- | --- | --- | --- |
|  |  | COc1ccc(Cl)c([C@@H](C)n2cnc3ccc(-c4ccccc4[C@H]4CCCCN4)cc32)c1Cl [LSN3160440] | only abolished in a triple mutant |
| 115 | 100 | GLP-1(9-36) (peptide) |  |
